The results in this text go back to patent publication US20230226096A1 (Orna Therapeutics, Inc., priority 2020, published 2023).

This series concerns HEK293 cells. The format is cell-based, human. Particulars: luminescence from secreted Gluc in supernatant 24 hours after transfection of HEK293 cells; circular RNA encoding Gluc with the named IRES (UTR truncated to 675 nt).

B1: EV L (nucleic acid)
DNA: ACATGGGCCAGCCCACCACACCCACTGGGTGTAGTAGTCTGGTTCTATGGAACCTTTCTACGCCTCTTTTGCTTCCCTCCCCCATTTCTCCTTCGATTGCTCCACCTGTGATCTTTGCAACTTAGAAGAAATAATGAACCCGCACAATAGCGGGCGCTGAGCCACAGCGTCAATGTGCAAGCACTTCTGTTTCCCCGGAATGGGCCCATAGGCTGTACCCACGGCTGAAAGGGACCGGCCCGTTACCCGCCTTGGTACTGCGAGAATGTTAGTAACTCCCTCGATAGCTTTAGGCGTTACGCTCAGCCCTTTGAGCCCGAAGGGTAGTTCGGGTCGATGAGGCTCGTCATTCCCCACTGGCGACAGTGTGACTTGCCTGCGTTGGCGGCCCGGGGTGGGGGGCAACCCCCATCCACGCCTACTGAAGGACAGGGTGTGAAGGCGCTATTGCGCTACTAAGGAGTCCTCCGGCCCCTGAATGCGGCTAACCCGAACCCCGAGCCCACGGTGGTAAACCCGCCACAAGTGGGTCGTAATGAGTAATTTGGGGCAGGGACCGACTACTTTGGGTGTCCGTGTTTCCTGTTTTTCCATACGATGGCTGCTTATGGTGACAACCATAAGCAATTGGATTGGCCATCCGGTGTTCATATTGCGAAT
modifications: Enterovirus L
Molecule B1 had an Expression of 6.49E+07.

B2: HRVB27 (nucleic acid, listed as Rhinovirus sp.)
DNA: TTAAAACAGCGGATGGGTATCCCACCATCCGACCCACAGGGTGTAGTGCTCTGGTATTTTGTACCTTTGCACGCCTGTTTCCCCATTGTACCCCTCCTTAAATTTCCTCCCCAAGTAACGTTAGAAGTTTAAGGAAACAAATGTACAATAGGAAGCATCACATCCAGTGGTGTTATGTACAAGCACTTCTGTTTCCCCGGAGCGAGGTATAAGTGGTACCCACCGCCGAAAGCCTTTAACCGTTATCCGCCAATCAACTACGTAATGGCTAGTATTACCATGTTTGTGACTTGGTGTTCGATCAGGTGGTTCCCCCCACTAGTTTGGTCGATGAGGCTAGGAACTCCCCACGGGTGACCGTGTCCTAGCCTGCGTGGCGGCCAACCCAGCTTTTGCTGGGACGCCTTTTTACAGACATGGTGTGAAGACCTGCATGTGCTTGATTGTGAGTCCTCCGGCCCCTGAATGCGGCTAACCTTAACCCCGGAGCCTTGCAACATAATCCAATGTTGTTGAGGTCGTAATGAGTAATTCTGGGATGGGACCGACTACTTTGGGTGTCCGTGTTTCCTTTTATTCTTTATATTGTCTTATGGTCACAGCATATATAGCATATATACTGTGATC
B2 came in with an Expression of 2.04E+08.

B3: Phacovirus Pf-CHK1 (nucleic acid)
DNA: GTGTGTCATTTCTCCCCTCCCCCTCCCAAACCTTTTCCCCCTCTAATCGGATTGATTAACCCGGTTAAAGATGATTAATGGTTTGTGAGTTGATATGATGGCCCGGCATTGAATCCGGGAATTCTTAAGTAATGGAATTGCATCCAATATGAAAGTGAGTGTGGCAAGCTCACAAGTAGTACTTGGCTCTGCCCATTATTTGAGGACCAACTCTTCTTGACTACAATGTGTTTAAAGTAAACTGGACCACATTGTGTATCCAGACAACTCCATTTGATAATGTACGCTGGAAACGTTTTCAGTGCATAGGGTCCTAAAGTGGTGCTGAAATATTGCAAGCTCAATGGGATACTGAACGCTGAAAACCGCCGCTGTTATCATATGGGCCCCTAGTGGGTAAATGTTGGCTTTAGGCATATACTGCTTGGGAATGCAGTACTGGTTGTAGACAGGGTGATAGCCTACCGGCTGGCGTAGTTGAGTTGGTATAGCCAGTTGATTGCCAT
B3: the Expression was determined as 5.87E+06.

B4: HRVC3 QPM (nucleic acid, listed as Rhinovirus sp.)
DNA: TTAAAGCTGGATCATGGTTGTTCCCACCATGATTACCCACGCGGTGCAGTGGTCTTGTATTACGGTACATTTCCATACCAGTTTTATACACCCCACCCCGAAACTCATAGAAGTTTGTACACAATGACCAATAGGTGGTGGCCATCCAGGTCGCTAATGGTCAAGCACTTCTGTTTCCCCGGCACCCTTGTATACGCTTCACCCGAGGCGAAAAATGAGGTTGTCGTTATCCGCAAAGTGCCTACGAAAAGCCTAGTAACACTTTGAAAACCCATGGTTGGTCGCTCAGCTGTTTACCCAACAGTAGACCTGGCAGATGAGGCTAGACATTCCCCACCAGCGATGGTGGTCTAGCCTGCGTGGCTGCCTGCACACCCTGCCGGGTGTGAAGCCAGAAAGTGGACAAGGTGTGAAGAGCCTATTGTGCTCACTTTGAGTCCTCCGGCCCCTGAATGTGGCTAACCCTAACCCCGTAGCTGTTGCATGTAACCCAACATGTATGCAGTCGTAATGGGCAACTATGGGATGGGACCAACTACTTTGGGTGTCCGTGTTTCCTGTTTTACTTTTTCATTGCTTATGGTGACAATTGTATCTGATACACTTGTTACC
B4 displayed an Expression of 1.64E+07.

B5: HRVA73 (nucleic acid, listed as Rhinovirus sp.)
DNA: TTAAAACTGGGTTTGGGTTGTTCCCACCCAAACCACCCACGCGGTGTTGTACACTGTTATTCCGGTAACCTTGTACGCCAGTTTTATATCCCTTCCCCCCCTTGTAACTTAGAAGACATGCGAATCGACCAATAGCAGGCAATCAACCAGATTGTCACCGGTCAAGCACTTCTGTTTCCCCGGCTCTCGTTGATATGCTCCAACAGGGCAAAAACAATTGGAGTCGTTACCCGCAAGATGCCTACGCAAAACCTAGTAGCATCTTCGAAGATTTTTGGTTGGTCGCTCAGTTGCTACCCCAGCAATAGACCTGGCAGATGAGGCTAGAAATACCCCACTGGTGACAGTGTTCTAGCCTGCGTGGCTGCCTGCACACCCACACGGGTGTGAAGCCAAAGATTGGACAAGGTGTGAAGAGTCACGTGTGCTCATCTTGAGTCCTCCGGCCCCTGAATGCGGCTAACCTTAACCCCGTAGCCATTGCTCGCAATCCAGCGAGTATATGGTCGTAATGAGTAATTACGGGATGGGACCGACTACTTTGGGTGTCCGTGTTTCACTTTTTACTTATCAATTTGCTTATGGTGACAATATATATAGATATATATTGACACC
For B5, the Expression came out at 1.08E+08.

B6: EV K (nucleic acid)
DNA: TCAGCCTGACGCAAGTGCCTCCATTGGAGTCTCTCCAAGCCCTCCGGGGCTTGGAGGGCGCCGACCCCCTGCCTAGGGGGAGCCCACGACACGGCTGGAGTCCATTGGCACACCGCAGCCACGATTCAAGCCAGAATTGAAAGCGGGAAGCACTTCTGTCTCCCCGGTGTGGATCATACGCTGTACCCACGGCGAAAAGTGAAGCATCGTTACCCGACTCGGTACTTCGAGAAGCCCAGTACAGTTGTGGATCTCTGCAGGGTATACGCTCAGCGTGACCCCTACGTAGTTCCTTGAGATGGCTGAGAGAACACCCCACGGGCGACCGTGTCTCTCGGCGCGTGGCTCAAGGCCGGGCCTTCAGTGGCTCGGTGCCTTGCAGAGTGAAGCCTCCGAACAGCCTATTGAGCTACCGTTTAGCCTCCGCCCTCTTGAATGCGGCTAATCCTAACCATGGAGCGCCCGCCCACAGTCCAGTGGGTAGAGCGTCGTAACGCGCAAGTCCGTGGCGGAACCGACTACTTTAGAGTGGCGTGTTTCCAATTTATCCTTTATAAAGTTGCTTATGGTGACACCACAAGAGATCCACGATTTCTTGTTTCTTATCACTGAGACACAAGTCATATTCATCAATCTTTATTGCGGAATTAACTTGGTGCGTCCAAACACATCAGC
modifications: Enterovirus K
Consider B6, for which the Expression is recorded as 7.52E+07.

B7: EV J 1631 (nucleic acid, listed as Enterovirus sp.)
DNA: CACCCTGAGGGCCCACGTGGCGTAGTACTCTGGTATCAAGGTACCTTTGTACGCCTATTTTATTTCCCTTCCCCCACAGTAACTTAGAAGCTTATCTCATAGTTCAACAGTAGGGTCACTAACCAAGTGGCTCAGCGAACAAGCACTTCTGTTTCCCCGGTCCTAGTACCTGTGAAGCTGTACCCACGGCGGAAGGGGAAAAAGATCGTTATCCGGCCCCCTACTTCGGAAAGCCTAGTAACACCATTGAAGCAATCGAGTGTTGCGCTCAGCACAGTAACCCCTGTGTAGCTTTGGTTGATGAGTCTGGGCACTCCCCACTGGCGACAGCGGCCCAGGCTGCGTTGGCGGCCAACCGACTCGGGCAACCGGGTCGGACGCTCGTTTGTGGACATGGTGTGAAGAGCCTACTGAGCTAGAGGGTAGTCCTCCGGCCCCTGAATGCGGATAATCCTAACCCCGGAGCACCCACACTCAATCCAGAGTGCAGGATGTCGTAACGCGTAAGTCTGGGACGGAACCGACTACTTTGGGTGTCCGTGTTTCCTGTTTTACTTACTTTGGCTGCTTATGGTGACAATCTAGTGTTGTTACCATATAGCTATTGGATTGGCCATCCGGTGTTTTGAATTGTGTGTTTATACTAATTCTTTTACATATCACAGACAACCAAAT
B7: the Expression worked out at 9.88E+07.

B8: PSIV (2x mut for Xba1) (nucleic acid)
DNA: GCAAAATGGGTACGTAGTTAACCACTGCGTATCAGGATTGCAGGCCACGAAGGGTATTTGCATATCTTTCTATGCGGTATTACGGCTTAAAACCCGTTGTATCTTGTTGTTTGACTGCCTGTATCACTAGTGGCCATTTTATTTAGGTTAGAGACCCCTGATAGTAGGAGAGTTACAAACTCTTTAAAAATTGTTGACCCCGGAAAAGATGGTGACCCCTGTAAGTAGTTGATCAAGAAGATCTATGCGCTGGCATAGTAATCCAGTGTTTCCTGTTTTAGGATGACCTCTGAAAGTAGATGACCGTGGAAAGTCACGTAGTGCCCCAATAAGCACGTTTGGGCAGCGTGCGCTATCACAAGGCTTGATCTCCGAGGAGCCCCTTGTTTTAGCTGGCTGGAAGCCAATGATCTTAAGTAGATAAGTGCTGTTGCTTGTAGTTCAACAGAAAGCTTTGAGTACGTCTTTCTTGCGAGAAAGAACACATGCATTCTTATGCTCTCAATTCTATTATTTTTATTTTGGGCGAAAGGAAAGCTCTCACGCGAGTACGAATAGCCAACCCTTTAT
Consider B8, for which the Expression stood at 9.70E+04.

B9: Boosepivirus B (nucleic acid)
DNA: TTTTCTCCCCTCCCCCTCCAACTACCTTTTCCCCCTCTTGTAACGCTAGAAGTTTGTGCAAACCGCCTGTAGGGTACTGCAATCCAGCAGTGCATAGGCTAAGCTTTTCTTGTTACCCCACCCCACATTATACTGAGGAGGATTGTGAAATTGTGTTAGTATGGGTTAGTAGCGGTGACCCGGGTAACCCCAACCCAGAAACTCACGGATGAGATGAACAGGACCCCACATGGTAACGTGTGTGTTCGTCTGCCCCGCAAGGTGAGGCCGTGAGAGCTTTGCACGCGAAAACCTTGAAAACCCAAAAGTACCTTGAGCTCTTCGCTATTTTGTGTTTCCTCCAGGACCCTGAATGCGGCTAAACCTAACCCGCGATCCGCACGTAGCAACCCAGCTAGAGTGTGGTCGTAATGCGCAAGTTGCGGGCGGTACCGACTACTTTGGTGTTCCTGTGTTTCCTTTATTTTATTTTGAATTTTTATGGTGACAACAGCTAGAAAATAAGAGTGAAC
modifications: Boosepivirus B
The molecule B9 had an Expression of 1.17E+08.
